In patent US20210070847A1 (UNIVERSITY OF FLORIDA RESEARCH FOUNDATION, published 2021):
Changes are numbered by the printed parent chain.

What was measured:
[1] = molecular target: T1, recombinant glutathione S-transferase (GST) tagged human tau MTBD R4 (human); assay: summary of immunoblots of GST-tagged MTBD fragments
T1 construct: Expressed in E. coli; total bacterial lysates were blotted after SDS-PAGE; also called GST/R4; not shown: glutathione S-transferase (GST) tag encoded by bacterial expression plasmid pGEX-2T; junction
T1 chain: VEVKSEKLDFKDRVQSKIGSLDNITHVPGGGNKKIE
From the text: For the generation of recombinant glutathione S-transferases (GST) tagged human MTBD R1-3 (residues 244-336 relative to ON/4R tau), R1 (residues 244-274 relative to ON/4R tau), R3 (residues 306-336 relative to ON/4R tau) and R4 (residues 337-372 relative to ON/4R tau) proteins, the corresponding cDNA sequences were amplified by PCR with the respective oligonucleotides with added BamHI and EcoRI restriction sites and cloned in these sites of bacterial expression plasmid pGEX-2T. These proteins were expressed in E. coli BL21 (DE3)/RIL with isopropyl β-D-1-thiogalactopyranoside induction. The bacteria were lysed with 2% SDS and following the addition of SDS sample buffer equal amounts of total bacterial lysates were resolved by SDS-PAGE and analyzed by immunoblotting.
Mice were immunized with the synthetic peptides corresponding to the MTBD in 4R human tau 244-372 (K18) conjugated to 21-140 αS at the N-terminus or 21-140 αS at the N-terminus and Aβ1-42 at the C-terminus. […] This selectivity for tau was also confirmed by detection of tau pathology by immunohistochemistry of human AD post-mortem brain tissue with abundant tau pathology. […] The specificity of these monoclonal antibodies was further determined by probing immunoblots of recombinant full-length human 2N/3R and 2N/4R tau and K18 (4R) tau fragment (FIG. 2). […]

Aβ = Aβ (UniProt P05067 672-713); assay: ELISA screening of hybridoma media on coated peptide
Sequence of Aβ (P05067 672-713): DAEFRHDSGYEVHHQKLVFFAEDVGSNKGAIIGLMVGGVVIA
Method: (§1) All hybridoma clones were screened for reactivity to K18 by enzyme-linked immunosorbent assay (ELISA). MaxiSorp plates (Thermo Scientific, Waltham, Mass.) or Immulon 4HBX plates (ThermoFisher Scientific, Waltham, Mass.) were coated with 1 μg/ml human recombinant tau or αS proteins or Aβ in PBS or 100 mM sodium bicarbonate and blocked with 5% FBS/PBS or 1% Block ACE in PBS. Media from the hybridomas were applied to plates, which were then incubated at room temperature for 3 hours. Next, the plates were washed with PBS and incubated with goat anti-mouse secondary antibody conjugated to horse radish peroxidase (HRP; Jackson Immuno Research Labs, West Grove, Pa.) for 1 hour at room temperature. Then, plates were washed and TMB substrates (Pierce, Rockford, Ill.) were applied until color changes were observed. Reactions were then quenched with 1M HCl or 85% 0-Phosphoric acid and absorbance was measured at 450 nm. Clones that were positive by ELISA were transferred to larger culture plates as needed. […]
(§2) Mice were immunized with the synthetic peptides corresponding to the MTBD in 4R human tau 244-372 (K18) conjugated to 21-140 αS at the N-terminus or 21-140 αS at the N-terminus and Aβ1-42 at the C-terminus. […] The specificity of these monoclonal antibodies was further determined by probing immunoblots of recombinant full-length human 2N/3R and 2N/4R tau and K18 (4R) tau fragment (FIG. 2). […]

[2] = molecular target: T2, human 1N4R tau with the P301S mutation (expressed in PS19 tau transgenic mice) (human, UniProt P10636 1-758); assay: immunoblot of total mouse brain lysates
T2 construct: Tested in total brain lysates (immunoblot) and spinal cord sections (immunohistochemistry) of PS19 mice; also called human tau in PS19 mice; over-expressed 1N4R human tau in PS19 brain
T2 sequence (P10636 other isoform, or with tags, fused parts or gaps P301S P301S limits assumed): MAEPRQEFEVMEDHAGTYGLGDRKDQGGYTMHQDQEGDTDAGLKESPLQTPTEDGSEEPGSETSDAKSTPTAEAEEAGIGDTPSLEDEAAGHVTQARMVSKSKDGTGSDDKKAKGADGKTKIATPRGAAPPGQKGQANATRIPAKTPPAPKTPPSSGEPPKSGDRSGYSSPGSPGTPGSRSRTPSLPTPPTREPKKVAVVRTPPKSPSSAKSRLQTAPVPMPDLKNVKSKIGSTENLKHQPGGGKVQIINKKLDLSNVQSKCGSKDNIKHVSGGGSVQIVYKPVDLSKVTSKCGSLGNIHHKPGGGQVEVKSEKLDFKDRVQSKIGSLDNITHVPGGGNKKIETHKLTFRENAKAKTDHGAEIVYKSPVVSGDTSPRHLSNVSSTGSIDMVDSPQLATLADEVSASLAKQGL
Method: Preparation of total mouse brain protein lysates Tau KO, PS19 Tg or NTg mice were euthanized by CO₂ inhalation and the brains were harvested. Brain tissue was homogenized in 2% SDS/50 mM Tris, pH 7.5 using a probe sonicator and then incubated for 10 min at 100° C. Protein concentrations were determined by BCA assay using BSA as the standard. Sample buffer was added and equal amounts of protein (10 μg) were resolved by SDS-PAGE and analyzed by immunoblot.
To assess the selectivity of these antibodies for human tau, immunoblots of total mouse brain lysates from tau KO, NTg and PS19 tau Tg mice were probed with these antibodies (FIG. 3). All of these antibodies detected human tau in whole brain lysates from PS19 mice. Antibodies 81A11, 83E4 and 94-3A2-2 reacted weakly with endogenous tau in NTg mice. […] All the antibodies were specific for tau as shown using the lysates from tau KO mice. A non-specific band at approximately 30 kDa present in all the lysates was attributed to non-specific binding of the secondary antibody shown with an immunoblot probed only with secondary antibody.

[3] = molecular target: T3, recombinant full-length human 2N/3R tau (human, UniProt P10636 2-758); assay: immunoblot of recombinant tau proteins
T3 construct: Expressed in E. coli from pRK172 and purified; also called 3-repeat tau
T3 sequence (P10636 other isoform, or with tags, fused parts or gaps limits assumed): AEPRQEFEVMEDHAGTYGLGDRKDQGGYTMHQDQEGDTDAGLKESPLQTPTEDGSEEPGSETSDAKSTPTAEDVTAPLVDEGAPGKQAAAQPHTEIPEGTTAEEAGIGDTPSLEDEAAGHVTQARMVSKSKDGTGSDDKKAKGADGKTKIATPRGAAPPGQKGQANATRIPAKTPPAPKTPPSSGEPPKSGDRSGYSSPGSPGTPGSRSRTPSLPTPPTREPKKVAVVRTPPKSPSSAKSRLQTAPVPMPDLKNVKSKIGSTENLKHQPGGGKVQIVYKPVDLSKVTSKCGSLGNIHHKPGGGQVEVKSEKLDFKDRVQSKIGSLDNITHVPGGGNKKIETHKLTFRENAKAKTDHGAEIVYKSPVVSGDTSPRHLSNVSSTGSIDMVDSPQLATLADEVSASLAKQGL

[4] = molecular target: T4, recombinant full-length human 2N/4R tau (human, UniProt P10636 2-758); assay: immunoblot of recombinant tau proteins
T4 construct: Expressed in E. coli from pRK172 and purified; also called 4-repeat tau
T4 sequence (P10636 other isoform, or with tags, fused parts or gaps limits assumed): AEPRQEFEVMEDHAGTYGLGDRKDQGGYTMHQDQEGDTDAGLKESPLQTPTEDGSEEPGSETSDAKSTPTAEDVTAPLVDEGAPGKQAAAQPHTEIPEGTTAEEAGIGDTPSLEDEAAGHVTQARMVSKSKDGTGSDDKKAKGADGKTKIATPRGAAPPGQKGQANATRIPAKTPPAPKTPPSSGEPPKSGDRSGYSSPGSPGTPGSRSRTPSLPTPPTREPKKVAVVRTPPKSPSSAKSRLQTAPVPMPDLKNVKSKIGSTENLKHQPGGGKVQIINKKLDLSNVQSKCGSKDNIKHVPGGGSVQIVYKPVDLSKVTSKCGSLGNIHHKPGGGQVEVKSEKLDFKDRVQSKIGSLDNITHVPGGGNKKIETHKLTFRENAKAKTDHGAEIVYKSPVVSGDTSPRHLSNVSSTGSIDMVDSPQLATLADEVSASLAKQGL

[5] = molecular target: recombinant human α-synuclein (human, UniProt P37840 1-140); assay: ELISA screening of hybridoma media on coated protein
Method: as §1, §2

[6] = molecular target: T5, human 0N4R tau with the P301L mutation (expressed in JNPL3 tau transgenic mice) (human, UniProt P10636 1-758); assay: immunohistochemistry of spinal cord sections
T5 construct: Tested as inclusions in spinal cord sections of JNPL3 mice; also called tau inclusions of JNPL3 mice
T5 sequence (P10636 other isoform, or with tags, fused parts or gaps P301L P301L limits assumed): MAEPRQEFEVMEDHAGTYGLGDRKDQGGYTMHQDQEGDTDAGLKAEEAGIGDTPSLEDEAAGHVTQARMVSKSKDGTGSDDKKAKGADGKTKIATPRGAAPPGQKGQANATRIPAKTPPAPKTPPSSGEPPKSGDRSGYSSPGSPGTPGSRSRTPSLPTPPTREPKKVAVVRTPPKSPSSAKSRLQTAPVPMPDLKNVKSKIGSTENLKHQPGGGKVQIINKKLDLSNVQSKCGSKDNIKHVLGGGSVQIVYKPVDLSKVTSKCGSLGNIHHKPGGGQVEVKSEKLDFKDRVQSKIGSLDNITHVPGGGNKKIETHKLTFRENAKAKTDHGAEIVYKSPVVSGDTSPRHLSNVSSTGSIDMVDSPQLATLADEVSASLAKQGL
Method: Paraffin embedded tissues from JNPL3 tau transgenic, PS19 tau-transgenic and non-transgenic (NTg) mice were used. All paraffin embedded, formalin fixed human brain tissues from de-identified donors were obtained through a human brain tissue bank. Sequential tissue sections were deparaffinized with xylenes and sequentially rehydrated with graded ethanol solutions (100-70%). Antigen retrieval was performed by incubating sections in a steam bath for 30 minutes. Endogenous peroxidase activity was quenched with 1.5% hydrogen peroxide/0.005% Triton-X-100/Tris-buffered Saline (TBS) for 20 minutes. Sections were blocked with 2.5% horse serum then incubated overnight at 4° C. with primary antibody. Following washing with TBS, sections were incubated with Vector ImmPress anti-mouse IgG peroxidase (Vector Laboratories, Burlingame, Calif., USA) for 30 minutes. Sections were washed with TBS and then developed with 3, 3′diaminobenzidine (DAB kit; Vector Laboratories). Reactions were stopped by immersing the slides in TBS and sections were counterstained with Mayer's hematoxylin (Sigma Aldrich, St. Louis, Mo.). Next, sections were dehydrated with an ascending series of ethanol solutions (70%-100%) followed by xylenes and coverslipped using cytoseal (Thermo Scientific, Waltham, Mass.).
Each of the 83E4, 94-3A2-2, 94-3A6 and 94-4F1 binds R4 and can recognize 3- and 4-repeat tau. […]

Measured: binding result

B1: monoclonal antibody 94-3A2-2 (antibody, V domains shown)
VH: QVQLQQSGAELAKPGASVKMSCKASGYTFTTYWMHWIKQRPGQGLEWIGYINPSNDYTEYNQKFKDEATLTVDKSSSTAYMQLNSLISEDSAVYYCAHPAYWGQGTLVTVSS
VL: ENVLTQSPAIMSASPGEKVTMTCSASSSVNYMHWYQQKSGTSPKLWIYDTSKLASGVPGRFSGSGSGNSYSLTISSMEAEDVATYYCFQGSGYPFTFGSGTKLEIKR
binds: [1] | [2] | [3] | [4] | [6]
no binding: Aβ | [5]

B2: monoclonal antibody 94-3A6 (antibody, V domains shown)
VH: QVQLQQPGTELVKPGASVKLSCKASGYPFTNYWMHWVKQRPGQGLEWIGNINPTNGDTNYNEKFKSKATLTVDKSSSTAYMQLSSLTSEDSAVYYCTRVTYWGQGTTLTVSS
VL: B1 VL with S28N, Y35F, K38E, G40S, F95Y, S99G
no binding: Aβ | [5]
binds: [1] | [2] | [3] | [4] | [6]
